Values quoted from earlier work, collected in patent US20100233200A1, “VECTOR ENCODING THERAPEUTIC POLYPEPTIDE AND SAFETY ELEMENTS TO CLEAR […]” (priority 2007, published 2010).

B1: F105Y mutant: modified human tmpk, SEQ ID NO: 11, SEQ ID NO: 21 (protein, UniProt P23919 2-212, looked up, variant F105Y)
Thymidylate kinase: AARRGALIVLEGVDRAGKSTQSRKLVEALCAAGHRAELLRFPERSTEIGKLLSSYLQKKSDVEDHSVHLLFSANRWEQVPLIKEKLSQGVTLVVDRYAFSGVAYTGAKENFSLDWCKQPDVGLPKPDLVLFLQLQLADAAKRGAFGHERYENGAFQERALRCFHQLMKDTTLNWKMVDASKSIEAVHEDIRVLSEDAIRTATEKPLGELWK
B2: R200A mutant: modified human tmpk, SEQ ID NOS: 15 and 16 (protein)
chain: MAARRGALIVLEGVDRAGKSTQSRKLVEALCAAGHRAELLRFPERSTEIGKLLSSYLQKKSDVEDHSVHLLFSANRWEQVPLIKEKLSQGVTLVVDRYAFSGVAFTGAKENFSLDWCKQPDVGLPKPDLVLFLQLQLADAAKRGAFGHERYENGAFQERALRCFHQLMKDTTLNWKMVDASKSIEAVHEDIRVLSEDAIATATEKPLGELWK

System: human tmpk
Settings: relative to wild-type tmpk; cited from earlier work

Row | Molecule | enzymatic activity (dTMP to dTDP or AZT-MP to AZT-DP)
1 | B1 | superior enzymatic activity
2 | B2 | superior enzymatic activity
